Experiment [1] has as its target T1, rhPSMA, extracellular part of human PSMA (residues 44-750) with its native N-terminus (human, UniProt Q04609 44-750, N-glycosylated (made in Schneider S2 insect cells)).
T1 construct: range 44-750; No tag; also called wild-type rhPSMA; rhGCPII
Kind of experiment: ELISA on coated rhPSMA; G4 taken as the sixth candidate. The method, then: 50 μL of rhPSMA (5 μg/mL in TBS) was directly adsorbed onto the surface of a MaxiSorp 96-well plate overnight at 4° C. Similarly, ovalbumin-coated wells (10 μg/mL in PBS) were used as a negative control. After blocking with 250 μL of 2% w/v BSA for 1 h at room temperature, 50 μL from a serial Anticalin dilution in PBS was added to each well and incubated for 1 h. The plates were washed three times and bound Anticalins were detected with StrepTactin-AP as described further above. The data were analyzed using Prism 5 software (GraphPad) and absorption values (A) were fitted according to the formula ΔA=Aₘₐₓ·[Lₜₒₜ]/(KD+[Lₜₒₜ]) with the concentration of the applied lipocalin variant [Lₜₒₜ] and the dissociation constant KD.
Specific binding activities of selected Anticalins toward rhPSMA as well as apparent affinity constants were initially determined by ELISA in 96-well Maxisorp plates coated with the recombinant wild-type PSMA protein. Anticalins were applied in a dilution series and detected via the C-terminal Strep-tag II. Five of the six analyzed Anticalin candidates specifically recognized PSMA with apparent dissociation constants (K₀ values) ranging from 6 to 42 nM, for A3 and H3, respectively (FIG. 4). For comparison, binding activity towards ovalbumin, which served as a negative control, was negligible. The G4 clone was later found to bind the anti-FLAG antibody (not shown).
A general note: An ELISA detects its analyte on a solid surface through an enzyme-linked reagent.

For experiment [2], the target named is T2, full-length human PSMA expressed on cells (HEK293T/PSMA transfectants, LNCaP) (human, UniProt Q04609 1-750).
T2 construct: whole, on cells; Transfected in HEK293T/17 cells, endogenous in LNCaP cells; In the Western blot it stood in SDS cell lysates; also called full length wild-type PSMA; cellular PSMA
T2 sequence (Q04609 whole entry): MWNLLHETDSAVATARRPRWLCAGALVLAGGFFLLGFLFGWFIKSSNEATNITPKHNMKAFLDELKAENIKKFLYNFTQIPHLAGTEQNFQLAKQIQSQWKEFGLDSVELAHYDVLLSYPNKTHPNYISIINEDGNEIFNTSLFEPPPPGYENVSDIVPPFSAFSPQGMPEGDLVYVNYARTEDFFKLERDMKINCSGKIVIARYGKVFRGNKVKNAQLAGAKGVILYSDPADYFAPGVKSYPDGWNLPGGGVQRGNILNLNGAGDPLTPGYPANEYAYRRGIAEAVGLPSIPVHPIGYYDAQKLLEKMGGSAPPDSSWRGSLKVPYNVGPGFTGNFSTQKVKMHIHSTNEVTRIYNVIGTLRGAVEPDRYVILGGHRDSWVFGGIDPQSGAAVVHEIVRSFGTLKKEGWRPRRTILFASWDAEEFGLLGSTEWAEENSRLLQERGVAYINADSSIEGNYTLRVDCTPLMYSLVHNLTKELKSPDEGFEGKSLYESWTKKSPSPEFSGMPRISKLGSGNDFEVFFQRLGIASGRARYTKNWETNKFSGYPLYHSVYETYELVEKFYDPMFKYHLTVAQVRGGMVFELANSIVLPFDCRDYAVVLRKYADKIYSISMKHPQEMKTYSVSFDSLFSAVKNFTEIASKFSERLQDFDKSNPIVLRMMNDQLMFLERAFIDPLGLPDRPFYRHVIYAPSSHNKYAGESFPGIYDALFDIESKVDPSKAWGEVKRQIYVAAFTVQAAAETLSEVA
Briefly: immunofluorescence microscopy on fixed, permeabilized cells. The method, then: PSMA-positive and -negative cells grown on cover slides coated with gelatin (0.1% w/v) were washed twice with PBS, fixed with 4% w/v paraformaldehyde in PBS for 15 min, permeabilized by treatment with PBS containing 0.1% v/v Triton X-100 for 15 min, and incubated in the blocking solution (5% w/v non-fat dried milk/PBS) for 30 min at room temperature (RT). Cells were then incubated with 0.5 μM Anticalin in 5% w/v non-fat dried milk/PBS for 45 min at RT followed by incubation with a Strep-tag II specific monoclonal antibody StrepMAB-Immo (2 μg/mL in PBS/0.05% Tween-20; IBA, 2-1517) for 1 h at RT. An anti-mouse secondary antibody conjugated to Alexa Fluor 488 (5 μg/mL in PBS/0.05% Tween-20; Life Technologies, A11029) served as detection reagent and was applied for 1 h at RT. All incubation steps were interspersed by extensive washing with PBS/0.05% Tween-20. […]
For immunofluorescence microscopy, the different cell lines were fixed with paraformaldehyde on glass coverslips and permeabilized. Following a blocking step, cells were probed with the Anticalin A3A5, which was detected by a murine antibody (StrepMAB-Immo) recognizing the Strep-tag II and an Alexa Fluor 488-labeled anti-mouse secondary antibody. […] Also, when wild-type Lcn2 was used instead of the Anticalin A3A5, no fluorescent staining was detected. […]

T1 sequence (Q04609 44-750 limits assumed): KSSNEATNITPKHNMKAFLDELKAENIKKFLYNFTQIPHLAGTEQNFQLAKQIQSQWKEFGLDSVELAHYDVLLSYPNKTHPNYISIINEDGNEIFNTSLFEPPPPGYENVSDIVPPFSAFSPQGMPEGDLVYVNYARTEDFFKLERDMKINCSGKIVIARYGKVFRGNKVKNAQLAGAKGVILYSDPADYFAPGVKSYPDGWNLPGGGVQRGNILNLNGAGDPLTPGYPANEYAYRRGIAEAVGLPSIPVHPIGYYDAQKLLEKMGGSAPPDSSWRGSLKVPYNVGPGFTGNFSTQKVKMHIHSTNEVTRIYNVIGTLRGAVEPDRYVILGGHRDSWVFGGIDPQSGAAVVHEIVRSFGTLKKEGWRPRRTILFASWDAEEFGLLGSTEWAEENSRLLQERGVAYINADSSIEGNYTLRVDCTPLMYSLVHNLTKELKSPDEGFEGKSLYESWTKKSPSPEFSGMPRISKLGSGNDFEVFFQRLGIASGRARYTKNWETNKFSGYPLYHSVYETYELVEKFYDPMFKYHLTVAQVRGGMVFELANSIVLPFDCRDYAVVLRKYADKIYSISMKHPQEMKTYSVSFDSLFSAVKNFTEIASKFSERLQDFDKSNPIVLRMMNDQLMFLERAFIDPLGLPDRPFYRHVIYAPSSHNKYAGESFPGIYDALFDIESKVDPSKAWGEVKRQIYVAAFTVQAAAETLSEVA

B1: Anticalin candidate G4 (designed binder)
chain: QDSTSDLIPAPPLSKVPLQQNFQDNQFHGKWYVVGHAGNMLLREDKDPSKMVATIYELKEDKSYNVTQVDFGTKKCFYAINTFVPGSQPGEFTLGHIKSNPGMTSMLVRVVSTNYNQHAMVFFKAVLQNREGFLITLYGRTKELTSELKENFIRFSKSLGLPENHIVFPVPIDQCIDG
notes: also called G4 clone; not shown: C-terminal Strep-tag II
With B1, in experiment [1], the binding result is recorded as “no binding”.

B2: wild-type Lcn2 (other)
chain: QDSTSDLIPAPPLSKVPLQQNFQDNQFQGKWYVVGLAGNAILREDKDPQKMYATIYELKEDKSYNVTSVLFRKKKCDYWIRTFVPGCQPGEFTLGNIKSYPGLTSYLVRVVSTNYNQHAMVFFKKVSQNREYFKITLYGRTKELTSELKENFIRFSKSLGLPENHIVFPVPIDQCIDG
notes: Negative control in microscopy and flow cytometry; also called wt Lcn2; lipocalin 2
With B2, in experiment [2], the binding result is “no binding (tested: 0.5 µM)”.

The values are drawn from patent US20180318451A1 (published 2018).
